Patent US20260176378A1 (DYAX, published 2026)

Each binder was assayed against T1, human plasma kallikrein (human, UniProt P03952 20-390; P03952 391-638) (assay: ELISA, biotinylated pKal signal over streptavidin background).
T1 construct: two disulfide-linked chains; NP_000883.2; also called pKal; hpKal
T1 sequence (P03952 20-390 limits assumed, chain 1 of 2): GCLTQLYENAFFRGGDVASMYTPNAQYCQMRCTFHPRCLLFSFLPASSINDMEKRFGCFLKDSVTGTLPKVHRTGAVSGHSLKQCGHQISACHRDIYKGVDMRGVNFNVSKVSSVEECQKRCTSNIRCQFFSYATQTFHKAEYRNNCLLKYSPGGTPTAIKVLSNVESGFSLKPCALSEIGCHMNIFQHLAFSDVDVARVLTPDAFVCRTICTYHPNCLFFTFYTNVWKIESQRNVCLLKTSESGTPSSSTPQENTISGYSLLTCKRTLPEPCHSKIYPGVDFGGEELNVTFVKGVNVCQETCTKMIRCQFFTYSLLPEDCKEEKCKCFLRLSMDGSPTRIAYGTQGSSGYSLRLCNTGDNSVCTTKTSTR
T1 sequence (P03952 391-638 limits assumed, chain 2 of 2): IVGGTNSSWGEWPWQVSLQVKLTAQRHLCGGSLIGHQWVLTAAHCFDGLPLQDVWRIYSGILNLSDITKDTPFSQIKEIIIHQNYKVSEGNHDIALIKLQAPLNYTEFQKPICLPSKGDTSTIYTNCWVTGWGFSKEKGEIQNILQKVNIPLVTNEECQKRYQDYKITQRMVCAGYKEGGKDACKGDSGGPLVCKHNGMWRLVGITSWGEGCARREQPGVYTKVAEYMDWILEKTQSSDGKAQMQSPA

Binder	ELISA (T/B)
M27-E05 (Fab, V domains shown) VH: EVQLLESGGGLVQPGGSLRLSCAASGFTFSWYLMIWVRQAPGKGLEWVSYIYPSGGFTYYADSVKGRFTISRDNSKNTLYLQMNSLRAEDMAVYYCARTEGPLSWGYGMDVWGQGTTVTVSS VL: not shown	41.3
M29-D09 (Fab, V domains shown, also called 559A-M29-D09 (sFab); 559A-M0029-D09) VH: EVQLLESGGGLVQPGGSLRLSCAASGFTFSWYTMVWVRQAPGKGLEWVSYIYPSGGATFYADSVKGRFTISRDNSKNTLYLQMNSLRAEDTAVYYCAMGSYDYIWGFYSDHWGQGTLVTVSS VL: QSALTQPPTVSVSPGQTARITCSGNKLGDKYVAWYQQKPGQSPMLVIYQDTKRPSRVSERFSGSNSANTATLSISGTQALDEADYYCQAWDSSIVIFGGGTRLTVL	47.5
M29-E09 (Fab, V domains shown) VH: EVQLLESGGGLVQPGGSLRLSCAASGFTFSWYEMGWVRQAPGKGLEWVSSIYSSGGGTMYADSVKGRFTISRDNSKNTLYLQMNSLRAEDTAVYYCARNPQYSGYDRSLSDGAFDIWGQGTMVTVSS VL: QYELTQPPSVSVSPGQTATITCSGDNLGNKYNSWYQQKPGQSPLLVIYQDTKRPSAIPERFSGSNSGNTATLTISGTQAMDEADYYCQAWDGNVVFGGGTKLTVL	28.8
M35-G04 (Fab, V domains shown, also called 559A-M35-G04; 559A-M0035-G04) VH: EVQLLESGGGLVQPGGSLRLSCAASGFTFSYYHMSWVRQAPGKGLEWVSVISPSGGSTKYADSVKGRFTISRDNSKNTLYLQMNSLRAEDTAVYYCARGGSSDYAWGSYRRPYYFDYWGQGTLVTVSS VL: DIQMTQSPATLSLSPGERATLSCRASQSVSSYLAWYQQKPGQAPRLLIYDASNRATGIPARFSGSGSGTDFTLTISSLEPEDFAVYYCQQRSNWPRGFTFGPGTKVDIK	11.1
M38-F02 (Fab, V domains shown) VH: EVQLLESGGGLVQPGGSLRLSCAASGFTFSYYMMVWVRQAPGKGLEWVSYIYSSGGHTVYADSVKGRFTISRDNSKNTLYLQMNSLRAEDTAVYYCARDLFLYDFWSKGAFDIWGQGTMVTVSS VL: QSVLTQPPSVSVSPGQTASITCSGEKLGDKYVSWYQQKPGQSPSLVICEDSRRPSGIPERFSGSNSGNTATLTISGAQPMDEADYYCQAWDSSTAIFGPGTKVTVL	33.5
M41-A11 (Fab, V domains shown) VH: EVQLLESGGGLVQPGGSLRLSCAASGFTFSHYRMSWVRQAPGKGLEWVSSIYPSGGRTVYADSVKGRFTISRDNSKNTLYLQMNSLRAEDTAVYYCAKDKFEWRLLFRGIGNDAFDIWGQGTMVTVSS VL: QSVLTQPPSVSVSPGQTASITCSGDKLGDKYTSWYQQRPGQSPVLVIYQDIKRPSGIPERFSGSNSGNTATLTISGTQAMDEADYYCQAWDSPNARVFGSGTKVTVL	28
M73-D06 (Fab, V domains shown) VH: EVQLLESGGGLVQPGGSLRLSCAASGFTFSRYEMYWVRQAPGKGLEWVSSISSSGGPTAYADSVKGRFTISRDNSKNTLYLQMNSLRAEDTAMYYCAKGTPKWELLLRSIYIENAFDIWGQGTMVTVSS VL: QSELTQPPSASETPGQRVTISCSGSSSNIGSNTVSWFQQLPGSAPRLLIYNDHRRPSGVPDRFSGSKSGTSASLVISGLQSQDEADYYCSAWDDSLNGVVFGGGTKLTVL	4
M7-B04 (Fab, V domains shown) VH: EVQLLESGGGLVQPGGSLRLSCAASGFTFSWYSMVWVRQAPGKGLEWVSSISPSGGLTNYADSVKGRFTISRDNSKNTLYLQMNSLRAEDTAVYYCARHTAARPFYYYYMDVWGKGTTVTVSS VL: QSALTQPASVSGSPGQSITISCTGTNSDVGNYNLVSWYQQHPGEAPKLLIYEVNKRPSGVSNRFSGSKSGNTASLTISGLQAEDEADYLCCSYAGNRNFYVFGAGTKVTVL	4.1
M76-D01 (Fab, V domains shown) VH: EVQLLESGGGLVQPGGSLRLSCAASGFTFSFYAMHWVRQAPGKGLEWVSGIVPSGGRTHYADSVKGRFTISRDNSKNTLYLQMNSLRAEDTAVYYCATDSSGSPNPLFDYWGQGTLVTVSS VL: DIVMTQTPPSLPVNPGEPASISCRSSQSLSDDGNTYLDWYLQRPGQSPQLLIHTLSYRASGVPDRFSGSGSGTDFTLKISRVEAEDVGVYYCMQGTHWPPTFGQGTKVEIK	11.2
M110-C12 (Fab, V domains shown) VH: EVQLLESGGGLVQPGGSLRLSCAASGFTFSYYEMDWVRQAPGKGLEWVSGISSSGGHTAYADSVKGRFTISRDNSKNTLYLQMNSLRAEDTATYYCARERRSSSRARYYYGMDVWGQGTTVTVSS VL: DIQMTQSPLSLSVTPGEPASISCRSSLSLLHSNGYNYLDWYVQRPGQSPQLLMYLSSTRASGVPDRFSGSGSGTDFTLEISRVEAEDVGVYYCMQPLETPPTFGGGTKVEIK	2.4
M137-E12 (Fab, V domains shown) VH: EVQLLESGGGLVQPGGSLRLSCAASGFTFSDYRMQWVRQAPGKGLEWVSVIVPSGGNTMYADSVKGRFTISRDNSKNTLYLQMNSLRAEDTAVYYCARGGPGSSIAARRAPTGYYGMDVWGQGTTVTVSS VL: QSVLIQPPSVSGIPGQRVTISCSGNNSNFGSNTVTWYQQLPGTAPKLLIYSDSRRPSGVPDRFSGSRSDTSASLAISGLQSEDEAEYHCAAWDDSLNGVFGGGTKLTVL	4.5
M142-H08 (antibody, V domains shown, tested as Fab (Ki,app) and as human IgG (SPR); the IgG is cleaved in HC CDR3 after WFR) VH: EVQLLESGGGLVQPGGSLRLSCAASGFTFSAYSMIWVRQAPGKGLEWVSYIRPSGGRTTYADSVKGRFTISRDNSKNTLYLQMNSLRAEDTAVYYCARGGLLLWFRELKSNYFDYWGQGTLVTVSS VL: DIQMTQSPSSLSAFVGDRVTITCRASQPIDNYLNWYHQKPGKAPKLLIYAASRLQSGVPSRLSGSGFGTDFTLTISSLQPEDFGNYYCQQSYTVPYTFGGGTKVEIR	29.9
M145-D01 (Fab, V domains shown) VH: EVQLLESGGGLVQPGGSLRLSCAASGFTFSYYHMSWVRQAPGKGLEWVSVISPSGGSTKYADSVKGRFTISRDNSKNTLYLQMNSLRAEDTAVYYCARGGSSDYAWGSYRRPYYFDYWGQGTLVTVSS VL: DIQMTQSPATLSLSPGERATLSCRASQSVSSYLAWYQQKPGQAPRLLIYDASNRATGIPARFSGSGSGTDFTLTISSLEPEDFAVYYCQQRSNWPRGFTFGPGTKVDIK	6.2
M145-D11 (Fab, V domains shown, also called 559A-M145-D11 (sFab); 559A-M0145-D11) VH: EVQLLESGGGLVQPGGSLRLSCAASGFTFSHYRMSWVRQAPGKGLEWVSSIYPSGGRTVYADSVKGRFTISRDNSKNTLYLQMNSLRAEDTAVYYCAKDKFEWRLLFRGIGNDAFDIWGQGTMVTVSS VL: QSVLTQPPSVSVSPGQTASITCSGDKLGDKYTSWYQQRPGQSPVLVIYQDIKRPSGIPERFSGSNSGNTATLTISGTQAMDEADYYCQAWDSPNARVFGSGTKVTVL	40
M146-E12 (Fab, V domains shown, claim 26 (viii) gives VL 265 and VH 266 instead) VH: EVQLLESGGGLVQPGGSLRLSCAASGFTFSRYIMHWVRQAPGKGLEWVSSISPSGGLTSYADSVKGRFTISRDNSKNTLYLQMNSLRAEDTAVYYCAREFENAYHYYYYGMDVWGQGTTVTVSS VL: DIQMTQSPSSLSASVGDRVTITCRASGDIGNALGWYQQKPGKAPRLLISDASTLQSGVPLRFSGSGSGTEFTLTISSLQPEDFATYYCLQGYNYPRTFGQGTKLEIR	49.6
M152-A12 (Fab, V domains shown) VH: EVQLLESGGGLVQPGGSLRLSCAASGFTFSPYFMGWVRQAPGKGLEWVSGIGPSGGSTTYADSVKGRFTISRDNSKNTLYLQMNSLRAEDTAVYYCAREGPPYSSGWYRGLRQYHFDYWGQGTLVTVSS VL: DIQMTQSPSSLSASVGDRVTITCRASQSISSYLSWYQQRPGKAPNLLIYAASSLQSGVPSRFSGSGSGTDFTLTISSLQPEDFATYYCQQSISIPRTFGQGTKVEVK	19
M160-G12 (antibody, V domains shown, phage-derived Fab; also called R84-D02) VH: EVQLLESGGGLVQPGGSLRLSCAASGFTFSHYLMTWVRQAPGKGLEWVSYISPSGGHTIYADSVKGRFTISRDNSKNTLYLQMNSLRAEDTAVYYCARVARGIAARSRTSYFDYWGQGTLVTVSS VL: DIQMTQSPSFLSASVGDRVTITCRASQGISSYLAWYQQKPGKAPKLLIYAASTLQSGVPSRFSGSGSGTEFTLTISSLQPEDFATYYCQQLNSYPLTFGGGTKVEIK	38.3
M161-C11 (Fab, V domains shown) VH: EVQLLESGGGLVQPGGSLRLSCAASGFTFSDYAMKWVRQAPGKGLEWVSSISSSGGVTQYADSVKGRFTISRDNSKNTLYLQMNSLRAEDTAVYYCAREEDYSSSWYSRRFDYYYGMDVWGQGTTVTVSS VL: QSALTQPPSVSVSPGQTASITCSGDKLGDKYVSWYQQRPGQSPVLVIYQDTKRPSGIPERFSGSNSGNTATLTISGTQAVDEADYYCQAWDSSTYVFGGGTKVTVL	41.8
M7-E07 (Fab, V domains shown) VH: EVQLLESGGGLVQPGGSLRLSCAASGFTFSWYLMIWVRQAPGKGLEWVSYIYPSGGFTYYADSVKGRFTISRDNSKNTLYLQMNSLRAEDMAVYYCARTEGPLSWGYGMDVWGQGTTVTVSS VL: not shown	45.7
M162-A04 (antibody, V domains shown, phage-derived Fab; also called R84-H05; M162-A4) VH: EVQLLESGGGLVQPGGSLRLSCAASGFTFSHYIMMWVRQAPGKGLEWVSGIYSSGGITVYADSVKGRFTISRDNSKNTLYLQMNSLRAEDTAVYYCAYRRTGIPRRDAFDIWGQGTMVTVSS VL: DIQMTQSPSTLSASVGDRVTITCRASQSISSWLAWYQQKPGKAPNLLIYKASTLESGVPSRFSGSGSGTEFTLTISSLQPDDFATYYCQQYNTYWTFGQGTKVEIK	11.4
M8-A09 (Fab, V domains shown) VH: EVQLLESGGGLVQPGGSLRLSCAASGFTFSTYFMLWVRQAPGKGLEWVSSIYPSGGNTVYADSVKGRFTISRDNSKNTLYLQMNSLRAEDTAVYYCARAASPVRNYYYYGMDVWGQGTTVTVSS VL: QCELTQPPSESVSPGQTANITCSGDKLGNKYAYWYQQKPGQSPVLVIYQDNNRPSGIPERFSGSNSGNTATLTISGTQAIDEANYYCQAWDSRTVVFGGGTKLTVL	5.4
M10-F10 (Fab, V domains shown) VH: EVQLLESGGGLVQPGGSLRLSCAASGFTFSFYNMNWVRQAPGKGLEWVSSISPSGGETNYADSVKGRFTISRDNSKNTLYLQMNSLRAEDTAVYYCARGGGAYRNNWWGGFDIWGLGTMVTVSS VL: DIQMTQSPSSLSASVGDRVTITCRASQSISVYLNWYQHKPGKAPKLLIYGASNLQFGVPSRFSGSGYGTDFTLTISSLQPEDFATYHCQQTFSLFTFGGGTKVEIK	39.2
